Data on 7 substances can be found in PMC7898620.

Experiment [1] concerns the target RbmA R219A mutant (Vibrio cholerae). The experiment can be described thus: SEC-SAXS; analytical Superdex 200 increase 3.2/300 column in line with SAXS, 0.075 ml/min; without MgPO4. The note with it: scale: mol monomer per mol dimer. (In general: Size exclusion chromatography separates by hydrodynamic size, large species first.)
For experiment [2], the target named is RbmA W119G mutant (Vibrio cholerae). The experiment is described as above. The note with it: scale: mol monomer per mol dimer.
For experiment [3], the target named is Rugosity and biofilm structure modulator A (RbmA), wild type (Vibrio cholerae). The experiment can be described thus: AUC; sedimentation velocity, 40,000 RPM, RbmA 5 mg/ml, absorbance at 250 nm and Rayleigh interference; without MgPO4.
Experiment [4] has the same target. Kind of experiment: SEC-MALS; ENrich SEC 70 column, 20 mM Tris pH 8.0, 200 mM NaCl, 2 mM DTT, 0.02% NaN3, 240-360 ug protein injected; without MgPO4.
Experiment [5] has the same target. The experiment can be described thus: time-resolved SAXS; stopped-flow mixing, 5 mg/ml RbmA in 20 mM Tris/HCl pH 8, 100 mM NaCl with 10 mM potassium phosphate and 2.5 mM MgCl2; followed for 3 hr.
Another experiment addresses RbmA E160A mutant. Kind of experiment: SEC-MALS. The following applies: parent: est. 58; read off a plot.
The next experiment concerns the target RbmA R219A mutant. The experiment can be described thus: SEC-MALS. The note with it: parent: est. 58; read off a plot.
For another experiment, the target named is RbmA W119G mutant. The experiment can be described thus: SEC-MALS. The note with it: parent: est. 58; read off a plot.
The next experiment concerns the target RbmA W222G mutant. The experiment can be described thus: SEC-MALS. The following applies: parent: est. 58; read off a plot.

“And” between values parts separate entries of the source, which are not always exact repeats. Identical values can stand only once.

For RbmA R219A mutant (natural protein), the monomer:dimer molar ratio in experiment [1] was found to be 3.5.

As to RbmA W119G mutant (natural protein), the dimer:monomer molar ratio in experiment [2] was 2.5.

A word on the stoichiometry N: it is the number of molecules, sites or subunits per partner or assembly. For the substance “Rugosity and biofilm structure modulator A (RbmA), wild type (natural protein)”, the stoichiometry N in [3] is 4 and 2; in experiment [4] it was 2; in experiment [5], 6.

Turning to “Rugosity and biofilm structure modulator A (RbmA), wild type E160A”, in the experiment with RbmA E160A mutant, the other: SEC-MALS average molecular weight was found to be 57 kg/mol.

Consider “Rugosity and biofilm structure modulator A (RbmA), wild type R219A”, for which the other: SEC-MALS average molecular weight in the experiment with RbmA R219A mutant was 36 kg/mol.

On to “Rugosity and biofilm structure modulator A (RbmA), wild type W119G”, for which, in the experiment with RbmA W119G mutant, the other: SEC-MALS average molecular weight turned out to be 49 kg/mol.

“Rugosity and biofilm structure modulator A (RbmA), wild type W222G”: the other: SEC-MALS average molecular weight with RbmA W222G mutant came out at 58 kg/mol.
